Laboratory results: paper PMC10791855

Tests used:
Test in all cases: SEC; gel filtration on HiPrep 16/60 Sephacryl S-200 HR in 20 mM Tris-HCl, 1.5 M NaCl, 50 mM imidazole, pH 7.4; molecular mass estimated against standard proteins
[1] = molecular target: Universal stress protein USP5 from Haloferax mediterranei (Haloferax mediterranei)
[2] = molecular target: Universal stress protein USP21 from Haloferax mediterranei (Haloferax mediterranei)
[3] = molecular target: Universal stress protein USP28 from Haloferax mediterranei (Haloferax mediterranei)

Substance: Universal stress protein USP5 from Haloferax mediterranei (natural protein)
- stoichiometry N [1]: 2

Substance: Universal stress protein USP21 from Haloferax mediterranei (natural protein)
- stoichiometry N [2]: 2

Substance: Universal stress protein USP28 from Haloferax mediterranei (natural protein)
- stoichiometry N [3]: 2
